Assay results published in US20210087286A1 (Amgen, published 2021).
Changes are numbered by the printed parent chain.

T1: human GIPR (human, UniProt P48546 22-466)
T1 sequence: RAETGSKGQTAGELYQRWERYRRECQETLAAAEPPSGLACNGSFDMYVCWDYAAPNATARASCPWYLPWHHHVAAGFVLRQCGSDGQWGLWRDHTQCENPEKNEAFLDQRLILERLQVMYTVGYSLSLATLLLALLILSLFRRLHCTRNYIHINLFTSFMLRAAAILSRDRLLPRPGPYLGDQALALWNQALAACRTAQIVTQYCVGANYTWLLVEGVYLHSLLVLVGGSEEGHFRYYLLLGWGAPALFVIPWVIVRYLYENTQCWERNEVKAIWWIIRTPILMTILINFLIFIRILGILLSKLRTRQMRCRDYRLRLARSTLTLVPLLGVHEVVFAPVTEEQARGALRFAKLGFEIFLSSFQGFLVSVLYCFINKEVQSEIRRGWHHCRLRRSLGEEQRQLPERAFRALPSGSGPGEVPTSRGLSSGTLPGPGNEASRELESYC

T2: murine GIPR (murine, UniProt Q0P543 19-460, limits assumed)
T2 sequence: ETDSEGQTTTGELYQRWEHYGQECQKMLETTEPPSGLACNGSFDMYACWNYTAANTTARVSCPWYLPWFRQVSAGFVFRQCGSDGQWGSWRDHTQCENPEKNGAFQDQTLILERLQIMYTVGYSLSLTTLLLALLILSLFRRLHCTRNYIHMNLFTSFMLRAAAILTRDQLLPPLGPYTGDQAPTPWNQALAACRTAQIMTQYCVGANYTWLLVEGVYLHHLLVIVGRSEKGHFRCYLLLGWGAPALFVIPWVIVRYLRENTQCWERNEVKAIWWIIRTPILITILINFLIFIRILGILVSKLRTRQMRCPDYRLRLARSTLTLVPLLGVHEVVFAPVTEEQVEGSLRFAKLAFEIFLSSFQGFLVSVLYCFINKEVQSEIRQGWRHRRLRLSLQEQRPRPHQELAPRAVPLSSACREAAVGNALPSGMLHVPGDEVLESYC

T3: huGIPR ECD (human, UniProt P48546 21-129, limits assumed)
T3 construct: Soluble analyte of the Biacore assay; also called human GIPR extracellular domain
T3 sequence: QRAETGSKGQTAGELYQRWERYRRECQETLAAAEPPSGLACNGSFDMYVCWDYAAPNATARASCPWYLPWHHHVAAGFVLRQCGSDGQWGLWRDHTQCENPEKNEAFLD

B1: 2G10.327 (antibody, human IgG1, kappa, N297G, V domains shown)
VH: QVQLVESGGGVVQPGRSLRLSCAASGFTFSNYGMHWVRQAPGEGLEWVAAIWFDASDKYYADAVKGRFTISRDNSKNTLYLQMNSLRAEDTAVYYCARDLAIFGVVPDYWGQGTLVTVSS
VL: EIVMTQSPATLSVSPGERATLSCRASQSVHSHLAWYQQKPGQAPRLLIYEAATRATGIPARFSGSGSGTEFTLTISSLQSEDFAVYYCQQYNQWPLTFGGGTKVEIKR
B2: 2G10.328 (antibody, human IgG1, kappa, N297G, V domains shown)
VH: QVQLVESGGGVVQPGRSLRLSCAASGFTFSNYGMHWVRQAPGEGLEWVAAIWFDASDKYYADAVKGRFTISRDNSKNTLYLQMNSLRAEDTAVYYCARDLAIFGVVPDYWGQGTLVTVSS
VL: B1 VL with H30S, S31E, N92Q, Q93N
B3: 2G10.329 (antibody, human IgG1, kappa, N297G, V domains shown)
VH: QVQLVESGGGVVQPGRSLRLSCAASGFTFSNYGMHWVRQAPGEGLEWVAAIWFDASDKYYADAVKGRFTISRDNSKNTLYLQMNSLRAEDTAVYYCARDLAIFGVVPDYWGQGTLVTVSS
VL: B1 VL with H30E, S31Q, Q93N
notes: also called SS-26206
B4: 2G10.330 (antibody, human IgG1, kappa, N297G, V domains shown)
VH: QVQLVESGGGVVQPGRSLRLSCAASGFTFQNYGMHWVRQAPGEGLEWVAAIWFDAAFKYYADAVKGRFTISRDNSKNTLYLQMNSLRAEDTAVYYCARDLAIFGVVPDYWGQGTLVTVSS
VL: B1 VL with H30D, S31Q, E50Q, N92Q, Q93N
notes: also called SS-26207
B5: 2G10.331 (antibody, human IgG1, kappa, N297G, V domains shown)
VH: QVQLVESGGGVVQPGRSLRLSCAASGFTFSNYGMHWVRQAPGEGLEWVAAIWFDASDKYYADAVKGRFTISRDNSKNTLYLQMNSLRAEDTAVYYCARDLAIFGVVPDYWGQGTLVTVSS
VL: B1 VL with H30D, S31L, N92Q, Q93N
notes: also called SS-26208
B6: 2G10.332 (antibody, human IgG1, kappa, N297G, V domains shown)
VH: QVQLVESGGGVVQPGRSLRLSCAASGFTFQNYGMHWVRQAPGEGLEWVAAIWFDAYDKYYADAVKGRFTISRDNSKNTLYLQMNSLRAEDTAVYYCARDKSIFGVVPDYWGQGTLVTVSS
VL: B1 VL with H30L, Q93N
notes: also called SS-26209
B7: 2G10.333 (antibody, human IgG1, kappa, N297G, V domains shown)
VH: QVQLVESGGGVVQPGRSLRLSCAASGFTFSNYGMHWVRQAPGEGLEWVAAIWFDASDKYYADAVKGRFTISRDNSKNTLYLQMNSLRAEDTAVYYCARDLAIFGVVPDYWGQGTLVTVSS
VL: B1 VL with H30S, S31R, N92Q, Q93H
notes: also called SS-26210
B8: 2G10.334 (antibody, human IgG1, kappa, N297G, V domains shown)
VH: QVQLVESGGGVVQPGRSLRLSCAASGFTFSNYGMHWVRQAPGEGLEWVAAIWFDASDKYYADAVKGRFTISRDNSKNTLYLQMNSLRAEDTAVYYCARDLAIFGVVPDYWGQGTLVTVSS
VL: B1 VL with H30N, S31L, H32N, E50Q
notes: also called SS-26211
B9: 2G10.335 (antibody, human IgG1, kappa, N297G, V domains shown)
VH: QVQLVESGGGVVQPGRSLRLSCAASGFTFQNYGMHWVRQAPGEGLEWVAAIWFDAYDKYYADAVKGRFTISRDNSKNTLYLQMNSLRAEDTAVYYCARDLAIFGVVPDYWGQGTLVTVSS
VL: B1 VL with H30T
notes: also called SS-26212
B10: 2G10.336 (antibody, human IgG1, kappa, N297G, V domains shown)
VH: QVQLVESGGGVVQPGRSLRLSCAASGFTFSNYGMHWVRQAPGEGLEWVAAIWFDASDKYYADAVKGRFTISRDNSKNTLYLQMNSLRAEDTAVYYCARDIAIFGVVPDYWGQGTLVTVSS
VL: B1 VL with H30Q, N92Q, Q93N
notes: also called SS-26213
B11: 2G10.337 (antibody, human IgG1, kappa, N297G, V domains shown)
VH: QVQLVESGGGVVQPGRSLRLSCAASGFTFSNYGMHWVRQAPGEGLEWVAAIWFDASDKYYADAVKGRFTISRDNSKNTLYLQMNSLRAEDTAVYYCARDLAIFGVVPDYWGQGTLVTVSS
VL: B1 VL with H30D, S31V, H32N
notes: also called SS-26214
B12: 2G10.338 (antibody, human IgG1, kappa, N297G, V domains shown)
VH: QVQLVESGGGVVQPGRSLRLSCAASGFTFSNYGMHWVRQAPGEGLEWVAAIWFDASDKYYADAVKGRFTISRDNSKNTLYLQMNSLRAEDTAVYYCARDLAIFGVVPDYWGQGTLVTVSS
VL: B1 VL with S31H
B13: 2G10.339 (antibody, human IgG1, kappa, N297G, V domains shown)
VH: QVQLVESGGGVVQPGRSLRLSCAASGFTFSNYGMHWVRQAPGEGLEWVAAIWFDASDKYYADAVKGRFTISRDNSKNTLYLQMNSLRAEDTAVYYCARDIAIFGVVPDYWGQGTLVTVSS
VL: B1 VL with H30F, S31Q, H32N, E50Q
B14: 2G10.340 (antibody, human IgG1, kappa, N297G, V domains shown)
VH: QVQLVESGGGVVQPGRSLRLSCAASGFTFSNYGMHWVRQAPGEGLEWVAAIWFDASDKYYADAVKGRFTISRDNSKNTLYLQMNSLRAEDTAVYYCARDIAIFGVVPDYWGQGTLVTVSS
VL: B1 VL with S31T, H32N, E50N, N92Q, Q93N
B15: 2G10.341 (antibody, human IgG1, kappa, N297G, V domains shown)
VH: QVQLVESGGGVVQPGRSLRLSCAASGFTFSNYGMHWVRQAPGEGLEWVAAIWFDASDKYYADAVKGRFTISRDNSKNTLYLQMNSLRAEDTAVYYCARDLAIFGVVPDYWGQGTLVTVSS
VL: B1 VL with H30D, S31V
B16: 2G10.342 (antibody, human IgG1, kappa, N297G, V domains shown)
VH: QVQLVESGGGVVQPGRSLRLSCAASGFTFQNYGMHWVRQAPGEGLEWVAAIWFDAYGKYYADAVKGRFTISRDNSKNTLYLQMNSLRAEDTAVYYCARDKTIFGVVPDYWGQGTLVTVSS
VL: B1 VL with H30E, S31R, N92Q
B17: 2G10.343 (antibody, human IgG1, kappa, N297G, V domains shown)
VH: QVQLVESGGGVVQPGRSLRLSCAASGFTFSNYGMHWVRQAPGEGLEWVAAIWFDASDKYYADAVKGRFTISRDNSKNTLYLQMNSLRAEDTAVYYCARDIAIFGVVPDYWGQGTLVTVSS
VL: B1 VL with H30L, S31E, Q93N
B18: 2G10.344 (antibody, human IgG1, kappa, N297G, V domains shown)
VH: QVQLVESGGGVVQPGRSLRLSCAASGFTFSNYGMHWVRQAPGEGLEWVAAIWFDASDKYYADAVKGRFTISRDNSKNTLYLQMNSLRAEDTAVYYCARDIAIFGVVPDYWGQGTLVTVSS
VL: B1 VL with H30S, N92Q
B19: 2G10.345 (antibody, human IgG1, kappa, N297G, V domains shown)
VH: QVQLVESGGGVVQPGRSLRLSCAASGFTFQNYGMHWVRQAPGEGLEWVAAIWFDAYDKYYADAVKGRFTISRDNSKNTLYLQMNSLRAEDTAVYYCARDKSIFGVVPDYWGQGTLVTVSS
VL: B1 VL with H30N, S31R, Q93N
B20: 2G10.347 (antibody, human IgG1, kappa, N297G, V domains shown)
VH: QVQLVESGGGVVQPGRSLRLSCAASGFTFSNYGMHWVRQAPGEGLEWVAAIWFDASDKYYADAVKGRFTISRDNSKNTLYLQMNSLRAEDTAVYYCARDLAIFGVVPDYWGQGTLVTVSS
VL: B1 VL with H30S, H32N, E50G, Q93N
B21: 2G10.348 (antibody, human IgG1, kappa, N297G, V domains shown)
VH: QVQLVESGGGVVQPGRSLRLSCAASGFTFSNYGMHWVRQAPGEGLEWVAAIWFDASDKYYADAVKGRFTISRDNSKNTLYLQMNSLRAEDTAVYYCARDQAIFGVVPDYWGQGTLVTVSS
VL: B1 VL with H30S, H32N, E50G, Q93N
B22: 2G10.601 (antibody, human IgG1, kappa, N297G, V domains shown)
VH: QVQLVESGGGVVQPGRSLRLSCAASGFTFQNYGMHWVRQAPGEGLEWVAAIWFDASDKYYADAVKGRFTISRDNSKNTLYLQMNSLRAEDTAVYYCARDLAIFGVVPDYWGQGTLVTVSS
VL: B1 VL with H30F, F62V, N92Q, Q93N
notes: also called SS-26226
B23: 2G10.602 (antibody, human IgG1, kappa, N297G, V domains shown)
VH: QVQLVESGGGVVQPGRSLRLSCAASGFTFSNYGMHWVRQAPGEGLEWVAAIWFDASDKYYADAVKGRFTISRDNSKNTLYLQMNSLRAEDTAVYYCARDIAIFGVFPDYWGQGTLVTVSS
VL: B1 VL with H30F, S31E, F62V, Q93N
notes: also called SS-26227
B24: 2G10.603 (antibody, human IgG1, kappa, N297G, V domains shown)
VH: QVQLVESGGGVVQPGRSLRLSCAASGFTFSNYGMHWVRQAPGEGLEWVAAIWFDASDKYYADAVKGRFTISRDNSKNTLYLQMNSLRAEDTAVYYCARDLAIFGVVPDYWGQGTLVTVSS
VL: B1 VL with H30D, S31R, F62V, N92Q, Q93N
notes: also called SS-26228
B25: 2G10.604 (antibody, human IgG1, kappa, N297G, V domains shown)
VH: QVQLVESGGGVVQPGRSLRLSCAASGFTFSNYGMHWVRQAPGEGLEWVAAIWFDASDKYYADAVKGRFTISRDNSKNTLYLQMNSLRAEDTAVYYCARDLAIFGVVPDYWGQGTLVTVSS
VL: B1 VL with H30N, S31R, F62V, N92Q, Q93N
notes: also called SS-26229
B26: 2G10.605 (antibody, human IgG1, kappa, N297G, V domains shown)
VH: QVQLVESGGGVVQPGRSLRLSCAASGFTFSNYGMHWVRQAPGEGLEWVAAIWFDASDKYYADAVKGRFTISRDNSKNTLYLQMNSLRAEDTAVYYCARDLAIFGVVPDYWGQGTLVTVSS
VL: B1 VL with H30D, S31V, H32N, E50N, F62V, N92Q, Q93N
notes: also called SS-26230
B27: 2G10.606 (antibody, human IgG1, kappa, N297G, V domains shown)
VH: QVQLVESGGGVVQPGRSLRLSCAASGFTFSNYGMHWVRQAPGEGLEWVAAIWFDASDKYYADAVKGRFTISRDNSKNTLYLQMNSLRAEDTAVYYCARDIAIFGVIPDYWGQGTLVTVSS
VL: B1 VL with H30L, S31T, F62V, N92Q, Q93N
notes: also called SS-26231
B28: 2G10.607 (antibody, human IgG1, kappa, N297G, V domains shown)
VH: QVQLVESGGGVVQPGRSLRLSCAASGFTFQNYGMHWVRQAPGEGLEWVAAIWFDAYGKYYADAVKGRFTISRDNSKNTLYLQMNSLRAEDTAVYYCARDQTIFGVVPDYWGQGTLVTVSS
VL: B1 VL with H30D, S31R, F62V
notes: also called SS-26232
B29: 2G10.608 (antibody, human IgG1, kappa, N297G, V domains shown)
VH: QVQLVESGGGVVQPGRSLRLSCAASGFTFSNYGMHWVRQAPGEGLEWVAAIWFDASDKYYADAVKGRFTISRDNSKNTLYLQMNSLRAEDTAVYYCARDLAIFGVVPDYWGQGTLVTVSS
VL: B1 VL with H30F, F62V, N92Q
notes: also called SS-26233
B30: 2G10.609 (antibody, human IgG1, kappa, N297G, V domains shown)
VH: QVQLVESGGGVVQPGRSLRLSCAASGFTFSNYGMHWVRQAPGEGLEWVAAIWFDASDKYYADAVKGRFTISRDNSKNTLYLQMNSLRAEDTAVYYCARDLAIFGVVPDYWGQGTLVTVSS
VL: B1 VL with H30E, S31R, F62V, N92Q, Q93N
notes: also called SS-26234
B31: 2G10.610 (antibody, human IgG1, kappa, N297G, V domains shown)
VH: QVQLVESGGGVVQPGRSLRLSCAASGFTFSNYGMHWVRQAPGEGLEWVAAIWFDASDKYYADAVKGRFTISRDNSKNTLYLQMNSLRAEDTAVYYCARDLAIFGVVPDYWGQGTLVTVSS
VL: B1 VL with H30F, S31T, F62V, Q93N
notes: also called SS-26235
B32: iPS:529397 (antibody, human IgG1, kappa, N297G, V domains shown)
VH: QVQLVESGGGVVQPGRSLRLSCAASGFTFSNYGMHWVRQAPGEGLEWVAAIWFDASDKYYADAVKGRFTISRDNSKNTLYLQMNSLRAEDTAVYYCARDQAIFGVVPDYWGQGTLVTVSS
VL: B1 VL with M4L, V13L, H30S, H32N, E50G, A60D, S77R, Q79E, S80P, Q93N
B33: iPS:529399 (antibody, human IgG1, kappa, N297G, V domains shown)
VH: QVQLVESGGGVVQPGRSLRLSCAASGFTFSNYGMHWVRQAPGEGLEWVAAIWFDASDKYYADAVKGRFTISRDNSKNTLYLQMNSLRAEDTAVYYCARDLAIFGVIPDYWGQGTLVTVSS
VL: B1 VL with M4L, V13L, H30S, S31E, A60D, S77R, Q79E, S80P, N92Q, Q93N
B34: iPS:529400 (antibody, human IgG1, kappa, N297G, V domains shown)
VH: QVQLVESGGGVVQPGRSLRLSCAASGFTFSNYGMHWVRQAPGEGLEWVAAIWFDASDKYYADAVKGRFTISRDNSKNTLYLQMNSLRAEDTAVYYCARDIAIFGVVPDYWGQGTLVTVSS
VL: B1 VL with M4L, V13L, H30S, H32N, E50G, A60D, S77R, Q79E, S80P, Q93N
B35: iPS:529403 (antibody, human IgG1, kappa, N297G, V domains shown)
VH: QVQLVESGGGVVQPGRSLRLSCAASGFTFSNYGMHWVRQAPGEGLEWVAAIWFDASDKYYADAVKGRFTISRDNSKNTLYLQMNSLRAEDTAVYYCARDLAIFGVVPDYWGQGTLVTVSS
VL: B1 VL with M4L, V13L, H30D, S31L, A60D, S77R, Q79E, S80P, N92Q, Q93N
B36: iPS:529404 (antibody, human IgG1, kappa, N297G, V domains shown)
VH: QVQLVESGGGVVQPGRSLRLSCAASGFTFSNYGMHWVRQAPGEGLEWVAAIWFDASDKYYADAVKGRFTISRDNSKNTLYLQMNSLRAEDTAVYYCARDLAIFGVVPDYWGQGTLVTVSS
VL: B1 VL with M4L, V13L, H30N, S31L, H32N, E50Q, A60D, S77R, Q79E, S80P
B37: iPS:529405 (antibody, human IgG1, kappa, N297G, V domains shown)
VH: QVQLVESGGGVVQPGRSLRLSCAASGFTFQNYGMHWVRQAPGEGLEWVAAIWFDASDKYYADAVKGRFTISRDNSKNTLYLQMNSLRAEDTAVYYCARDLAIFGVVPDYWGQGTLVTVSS
VL: B1 VL with M4L, V13L, H30F, A60D, S77R, Q79E, S80P, N92Q, Q93N

target: T1, human GIPR; test: cell-based or functional assay

| cAMP IC50 [nM] | Binder |
| --- | --- |
| 19.3 | B1 |
| 24.4 | B2 |
| 26.8 | B3 |
| 18.6 | B4 |
| 19.7 | B5 |
| 12.9 | B6 |
| 12.1 | B7 |
| 13.7 | B8 |
| 25.9 | B9 |
| 29.6 | B10 |
| 32.5 | B11 |
| 23.4 | B12 |
| 22.6 | B13 |
| 25.9 | B14 |
| 24.7 | B15 |
| 11.6 | B16 |

| cAMP IC50 [nM] | Binder |
| --- | --- |
| 37.6 | B17 |
| 21.9 | B18 |
| 18.9 | B19 |
| 28.4 | B20 |
| 42.8 | B21 |
| 21.4 | B22 |
| 16.8 | B23 |
| 30.5 | B24 |
| 27.1 | B25 |
| 25.6 | B26 |
| 20.4 | B27 |
| 19.4 | B28 |
| 21.7 | B29 |
| 26.9 | B30 |
| 12.9 | B31 |

target: T1, human GIPR; test: cell-based or functional assay; remark: another data set of the same source

| human cAMP IC50 [nM] | Binder |
| --- | --- |
| 53 | B21 |
| 50 | B32 |
| 39.3 | B33 |
| 36.6 | B34 |
| 33.9 | B35 |
| 27.8 | B36 |
| 22.7 | B37 |

target: T2, murine GIPR; test: cell-based or functional assay

| murine cAMP [nM] | Binder |
| --- | --- |
| 14600 | B21 |
| 108 | B32 |
| 12.9 | B33 |
| 79.5 | B34 |
| 12 | B35 |
| 3.9 | B36 |
| 6.1 | B37 |

target: T3, huGIPR ECD; test: SPR (Biacore T200), mAb captured via goat anti-huFc, 200 nM huGIPR ECD analyte
Procedure: Immobilization of Goat-anti-huFc antibody to a S-CM5 sensor chip surface was performed according to manufacturer's instructions. The Biacore instrument running buffer is 0.005% P20/PBS 1×, pH7.4, no calcium chloride, no magnesium chloride. Briefly, carboxyl groups on the sensor chip surfaces were activated by injecting 60 μL of a mixture containing 0.2 M N-ethyl-N′-(dimethylaminopropyl) carbodiimide (EDC) and 0.05 M N-hydroxysuccinimide (NHS). Goat-anti-huFc antibody was diluted in 10 mM sodium acetate, pH 4.0 at 20 μg/ml and injected over the activated chip surface at 30 uL/min for 6 minutes. Excess reactive groups on the surfaces were deactivated by injecting 60 μL of 1 M ethanolamine. Final immobilized level was ˜8000 resonance units (RU).
Binding assays were carried out on the immobilized goat anti-huFc antibody surface by Biacore T200. The experiment was performed at 25° C. The instrument running buffer was 0.005% P20/PBS. The goat anti-huFc capture antibody was covalently attached to the sensor chip surface via standard amine coupling to flow cells channel 1-4. The anti-huGIPR antibodies were diluted in sample buffer (0.1 mg/ml BSA, 0.005% P20, PBS) to ˜10 nM then captured to flow cells channel 2, 3, 4. Flow cell channel 1 was as a blank reference surface without injection of anti-huGIPR antibody. The captured antibody response range was ˜250 RU. Then 200 nM huGIPR ECD was injected over the goat anti-huFc antibody captured anti-huGIPR antibody surfaces at flow rate 50 ul/min for 3 minutes. After a 10 minutes dissociation, each surface was regenerated by injecting 10 mM Glycine, pH 1.5 for 30 seconds twice.

| koff [s⁻¹] | Binder |
| --- | --- |
| < 5e-05 | B1 |
| 7e-05 | B2 |
| 6e-05 | B3 |
| < 5e-05 | B4 |
| 5e-05 | B5 |
| 6e-05 | B6 |
| < 5e-05 | B7 |
| 6e-05 | B8 |
| 6e-05 | B9 |
| 0.0002 | B10 |
| < 5e-05 | B11 |
| 8e-05 | B12 |
| 7e-05 | B13 |
| 6e-05 | B14 |
| 7e-05 | B15 |
| < 5e-05 | B16 |

| koff [s⁻¹] | Binder |
| --- | --- |
| 6e-05 | B17 |
| 6e-05 | B18 |
| 8e-05 | B19 |
| 0.0001 | B20 |
| 0.0006 | B21 |
| 6e-05 | B22 |
| < 5e-05 | B23 |
| < 5e-05 | B24 |
| < 5e-05 | B25 |
| 7e-05 | B26 |
| < 5e-05 | B27 |
| 6e-05 | B28 |
| < 5e-05 | B29 |
| 6e-05 | B30 |
| < 5e-05 | B31 |
